B1: J10: monocyte-specific DNA aptamer from cell-SELEX, SEQ ID NO. 4 (Table 2); Cy5-labeled for flow cytometry (nucleic acid)
DNA: CAATAGAGTCGTACAGGTCGACGCTCGGATGCCACTACAGGGATGGGAGGGAGGGGGCTCGTGGCGGCTAGGGGGTATAACTCATGGACGTGCTGGTGAC
modifications: DNA, backbone and methylation of C not given here; Cy5 label
B2: S2: control aptamer, scrambled J10 sequence with same nucleotide composition, SEQ ID NO. 5 (nucleic acid)
DNA: CAATAGAGTCGTACAGGTCGTGAGAAGGCGTTGGTCTATCGGGGTCGTGGACTGTCCAAGGGCATGACCGGTCTGACGGTGGCCAGAGACGCAGGAGGGG
modifications: DNA, backbone and methylation of C not given here; Cy5 label

How the values were obtained:
[1] = tested on: human umbilical cord endothelial cells (HUVEC); assay: Flow cytometry binding of Cy5-labeled aptamers to HUVEC (negative control); conditions: 200 nM Cy5-aptamer, 4° C., 30 minutes; FIG. 3
Experimental: (§1) To confirm that J10 binding, but not S2 binding, was selective to human monocytes in vitro, Cy5-labeled J10 and S2 were also incubated with the human monocyte cell lines, THP-1 and U937, and human umbilical cord endothelial cells (HUVEC), which were used as a negative control. In brief, 5×10^5 of each selected cell line was pre-mixed in a bloc king buffer (20% FBS and 10% salmon sperm DNA in PBS) at 4° C. for 30 minutes. After that, the cells were reacted with 200 nM Cy5-J10 or Cy5-S2 in the blocking buffer at 4° C. for 30 minutes. Finally, the sample was subjected to flow cytometry using standard protocols known in the art.

[2] = tested on: mouse endothelial cell line SVEC; assay: Flow cytometry binding of Cy5-labeled aptamers to SVEC (negative selection); conditions: 200 nM Cy5-aptamer, 4° C., 30 minutes; FIG. 2A
Experimental: (§2) Cy5-labeled J10 and S2 were also incubated with the mouse endothelial cell line SVEC which was used as a negative selection. In brief, 5×10^5 of each selected cell line was pre-mixed in a bloc king buffer (20% FBS and 10% salmon sperm DNA in PBS) at 4° C. for 30 minutes. After that, the cells were reacted with 200 nM Cy5-J10 or Cy5-S2 in the blocking buffer at 4° C. for 30 minutes. Finally, the sample was subjected to flow cytometry using standard protocols known in the art.

[3] = tested on: human monocyte cell line THP-1; assay: Flow cytometry binding of Cy5-labeled aptamers to THP-1; conditions: 200 nM Cy5-aptamer, 4° C., 30 minutes; FIG. 3
Experimental: as §1

[4] = tested on: infarct area of the injured hearts; conditions: mouse, iv
Experimental: as §2
To generate the murine I/R models, 8-10 weeks old mice were anesthetised with 80 mg/kg Zoletil 50 and 3.5 mg/kg Rompun and given O2 via a tracheal tube on the 37° C. heating pad. The heart was accessed via left thoracotomy between the third and fourth ribs. The left anterior descending coronary artery was temporarily ligated with sutures 7-0 polypropylene through polyethylene-10 tubing for 45 minutes. Subsequently, polyethylene-10 tubing was removed to induce myocardial ischemia/reperfusion injury. The success of the surgery was evaluated by echocardiography on the following day.

[5] = tested on: RAW264.7 monocyte cell line; assay: Flow cytometry binding of Cy5-labeled aptamers to RAW264.7; set-up: species or system mouse; conditions: 200 nM Cy5-aptamer, 4° C., 30 minutes; FIG. 2A
Experimental: as §2

[6] = tested on: J774A.1 monocyte cell line; assay: Flow cytometry binding of Cy5-labeled aptamers to J774A.1; set-up: species or system mouse; conditions: 200 nM Cy5-aptamer, 4° C., 30 minutes; FIG. 2A
Experimental: as §2

[7] = tested on: human monocyte cell line U937; assay: Flow cytometry binding of Cy5-labeled aptamers to U937; conditions: 200 nM Cy5-aptamer, 4° C., 30 minutes; FIG. 3
Experimental: as §1

[8] = tested on: circulating myeloid cells (CD45+ CD11b+ cells); assay: Ex vivo binding to peripheral blood cells by flow cytometry; set-up: species or system mouse; conditions: 2 μM Cy5-Apt, 30 minutes at 4° C., peripheral blood of healthy mice; FIG. 2D
Experimental: To test for ex vivo binding specificity and affinity, 100 μL peripheral blood from healthy mice was withdrawn via the submandibular vein, collected in EDTA-containing anticoagulant tubes (BD Vacutainer), and incubated with 2 mL ACK lysing buffer for 10 minutes to lyse the red blood cells. After that, 2% FBS in PBS was added to stop the reaction. Following centrifugation (300 g for 3 minutes at 4° C.) the supernatants were removed. One million cells were blocked by CD16/CD32 Fc blocking antibody (1:100; Invitrogen) after incubation for 20 minutes. Then the cells were stained for CD45 (PE-Cy7; 1:100; Biolegend), CD11b (PE; 1:200; Biolegend) and 2 μM Cy5-Apt for 30 minutes at 4° C. Finally, the cells were washed by 2% FBS in PBS and subjected to flow cytometry using standard protocols known in the art.

Molecule | binding affinity to HUVEC [1] | detection of Cy5-labeled aptamer in SVEC [2] | binding affinity to THP-1 [3] | in vivo targeting of aptamer to the injured site (PCR) [4] | percentage of Cy5-labeled monocytes (RAW264.7) [5] | percentage of Cy5-labeled monocytes (J774A.1) [6] | binding affinity to U937 [7] | affinity to circulating myeloid cells (CD45+ CD11b+ cells) [8]
B1 | but not human endothelial cell line HUVEC | no detection | high binding affinity | confirmed in vivo targeting ability | significantly higher than the percentage of Cy5-labeled S2 monocytes | significantly higher than the percentage of Cy5-labeled S2 monocytes | high binding affinity | high affinity
B2 | no binding affinity | no detection | no binding affinity | – | but not S2, was capable of binding selectively to monocytes in vitro | but not S2, was capable of binding selectively to monocytes in vitro | no binding affinity | –

— patent publication US12702716B2, “Monocyte-specific aptamers and uses thereof for delivering therapeutic agents to heart” (Academia Sinica, priority 2020, dated 2026)
